From patent US7666414B2, “Methods for treating prostate cancer using modified antibodies to prostate-specific membrane antigen” (Cornell Research Foundation, Inc., dated 2010)
Residue numbers refer to the chain shown, from its start.

B1: deimmunized J415, heavy chain version 1 with light chain version 5 (antibody, V domains shown)
VH: EVKLEESGGGLVQPGGSMKISCKASGFTFSNYWMNWVRQTPEKGLEWVALIRSQSNNFATHYAESVKGRVIISRDDSKSSVYLQMNSLRAEDTAVYYCTRRWNNFWGQGTTVTVSS
VL: NIVMTQFPKSMSASAGERMTLTCKASENVGTYVSWYQQKPTQSPKMLIYGASNRFTGVPDRFSGSGSGTDFILTISSVQAEDLVDYYCGQSYTFPYTFGGGTKLEMK
B2: deimmunized J415, heavy chain version 2 with light chain version 5 (antibody, V domains shown)
VH: B1 VH with K23V
VL: B1 VL

Biological target: prostate specific membrane antigen (PSMA) on LNCaP cells (human, UniProt Q04609)
Experiment: ELISA on plates coated with LNCaP membrane preparation, purified antibody

Binder | fold change against the chimeric antibody [fold less]
B1 | 2
B2 | 2
